Columns and labels:
[1] = biological target: MAGE-A3 168-176 peptide (…) in the context of HLA-A*01 (human); experiment: cell-based or functional assay
[2] = biological target: MAGE-A12:170-178 in the context of HLA-Cw7 (subtype not stated at that place) (human); experiment: cell-based or functional assay

Row | minimum peptide concentration for recognition, relative to TCR A10 [1] | minimum peptide concentration for recognition, relative to TCR 502 [2] | Binder
1 | 10 fold (higher than for TCR A10) |  | anti-MAGE-A3 TCR 13-18 (TCR, V domains shown) V domain 1: QKEVEQDPGPLSVPEGAIVSLNCTYSNSAFQYFMWYRQYSRKGPELLMYTYSSGNKEDGRFTAQVDKSSKYISLFIRDSQPSDSATYLCAMRGAQKLVFGQGTRLTINP V domain 2: DAMVIQNPRYQVTQFGKPVTLSCSQTLNHNVMYWYQQKSSQAPKLLFHYYDKDFNNEADTPDNFQSRRPNTSFCFLDIRSPGLGDAAMYLCATSWDRGYEQYFGPGTRLTVTE
2 |  | 100 fold (higher than for TCR 502) | anti-MAGE-A12 TCR FM8 (TCR, V domains shown) V domain 1: QTVTQSQPEMSVQEAETVTLSCTYDTSESDYYLFWYKQPPSRQMILVIRQEAYKQQNATENRFSVNFQKAAKSFSLKISDSQLGDAAMYFCAYRSAQGGSEKLVFGKGTKLTVNP V domain 2: ETGVTQTPRHLVMGMTNKKSLKCEQHLGHNAMYWYKQSAKKPLELMFVYSLEERVENNSVPSRFSPECPNSSHLFLHLHTLQPEDSALYLCASSQTTYYNEQFFGPGTRLTVLE

Source: US20220195008A1 (US Dept. of Health and Human Services, published 2022)
